Assay results reported in US20250188188A1 (DIANTHUS THERAPEUTICS OPCO, published 2025).
Substitutions are numbered along the chain they refer to. Names and notes keep the numbering of the source.

B1: IgG4-MAB4 (MAB4 in human IgG4 with S228P, L235E and YTE) (antibody, V domains shown)
VH: QVQLVESGGGLVKPGGSLRLSCAASGFTFSDYYMSWIRQAPGKGLEWVSYISRSGSTKYYADSVKGRFTISRDNAKNSLYLQMNSLRAEDTAVYYCARDESQYALDYWGQGTLVTVSS
VL: DIQMTQSPSSLSASVGDRVTITCQASQDISNYLNWYQQKPGKAPKLLIYDASNLETGVPSRFSGSGSGTDFTFTISSLQPEDIATYYCHQYEDYPLTFGGGTKVEIKR
B2: MAB2 (US20220380483A1) (antibody, V domains shown)
VH: B1 VH with S101T, Q102D
VL: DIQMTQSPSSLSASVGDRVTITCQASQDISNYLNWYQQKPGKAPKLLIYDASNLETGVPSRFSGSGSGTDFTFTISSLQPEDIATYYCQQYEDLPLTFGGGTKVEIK
B3: IgG4-MAB39 (MAB39 in human IgG4 with S228P, L235E and YTE) (antibody)
heavy: EVQLVESGGGLVKPGGSLRLSCAASGFTFSDYYMSWIRQAPGKGLEWVSYISRSGSTKYYADSVKGRFTISRDNAKNSLYLQMNSLRAEDTAVYYCARDENYALDWWGQGTLVTVSSASTKGPSVFPLAPCSRSTSESTAALGCLVKDYFPEPVTVSWNSGALTSGVHTFPAVLQSSGLYSLSSVVTVPSSSLGTKTYTCNVDHKPSNTKVDKRVESKYGPPCPPCPAPEFEGGPSVFLFPPKPKDTLYITREPEVTCVVVDVSQEDPEVQFNWYVDGVEVHNAKTKPREEQFNSTYRVVSVLTVLHQDWLNGKEYKCKVSNKGLPSSIEKTISKAKGQPREPQVYTLPPSQEEMTKNQVSLTCLVKGFYPSDIAVEWESNGQPENNYKTTPPVLDSDGSFFLYSRLTVDKSRWQEGNVFSCSVMHEALHNHYTQKSLSLSLG
light: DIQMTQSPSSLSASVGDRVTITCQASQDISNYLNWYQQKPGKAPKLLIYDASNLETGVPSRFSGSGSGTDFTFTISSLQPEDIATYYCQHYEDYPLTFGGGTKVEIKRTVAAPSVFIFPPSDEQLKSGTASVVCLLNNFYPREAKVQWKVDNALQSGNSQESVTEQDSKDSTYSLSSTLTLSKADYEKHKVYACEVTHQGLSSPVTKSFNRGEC
notes: Differs from MAB9 only in the N-terminal VH residue (E instead of Q); also called IgG-MAB39
B4: MAB22 (antibody, V domains shown)
VH: EVQLVESGGGVVRPGGSLRLSCAASGFTFDDYGMSWVRQAPGKGLEWVSGINWEGGSTGYADSVKGRFTISRDNAKNSLYLQMNSLRAEDTALYYCARDEQLGGKYYYYYYMDVWGKGTTVTVSS
VL: DIQMTQSPSSLSASVGDRVTITCRASQGIRNDLGWYQQKPGKAPKRLIYTASNLQSGVPSRFSGSGSGTEFTLTISSLQPEDFATYYCLQYRSHPLTFGGGTKVEIK
notes: IgG
B5: MAB24 (antibody, V domains shown)
VH: B4 VH with K105T, Y106T
VL: B4 VL with Y91T, R92N, S93I, H94Y
notes: IgG
B6: MAB25 (antibody, V domains shown)
VH: B4 VH with K105I, Y106K
VL: B4 VL with R92K, S93Q, H94Y
notes: IgG
B7: MAB26 (antibody, V domains shown)
VH: B4 VH with T69S, K105L, Y106K
VL: B4 VL with Y91T, R92N, S93I, H94Y
notes: IgG
B8: MAB28 (antibody, V domains shown)
VH: B4 VH with T69S, K105L, Y106K
VL: B4 VL with R92H, H94Y, T97R
notes: IgG
B9: MAB30 (antibody, V domains shown)
VH: B4 VH with K105R, Y106H
VL: B4 VL with R92N, S93A, H94Y, T97I
notes: IgG
B10: MAB9 (antibody, V domains shown)
VH: QVQLVESGGGLVKPGGSLRLSCAASGFTFSDYYMSWIRQAPGKGLEWVSYISRSGSTKYYADSVKGRFTISRDNAKNSLYLQMNSLRAEDTAVYYCARDENYALDWWGQGTLVTVSS
VL: DIQMTQSPSSLSASVGDRVTITCQASQDISNYLNWYQQKPGKAPKLLIYDASNLETGVPSRFSGSGSGTDFTFTISSLQPEDIATYYCQHYEDYPLTFGGGTKVEIK
notes: The IgG4 YTE form is entered separately as IgG4-MAB9
B11: MAB3 (antibody, V domains shown)
VH: B1 VH with S101T, Q102D, L105F, Y107E
VL: B10 VL with Q89K, H90Q
notes: IgG
B12: MAB1 (antibody, V domains shown)
VH: B1 VH with E100Q, S101E, Q102D
VL: B10 VL with Q89E, H90Q
notes: 191g-derived clone expressed as IgG in 293 cells
B13: MAB2 (antibody, V domains shown)
VH: B1 VH with S101T, Q102D, A104G, L105W
VL: B10 VL with Q89K, H90Q
notes: IgG
B14: MAB4 (antibody, V domains shown)
VH: B1 VH
VL: B10 VL with Q89H, H90Q
notes: The IgG4 YTE form is entered separately as IgG4-MAB4
B15: MAB7 (antibody, V domains shown)
VH: B1 VH with S101T, Q102D, L105Y, Y107N
VL: B10 VL with H90Q, T97V
notes: IgG
B16: MAB15 (antibody, V domains shown)
VH: QVQLVQSGAEVKKPGASVKVSCKVSGDTLTELSMHWVRQAPGKGLEWMGTFDPEEGETIYAQKFQGRVTMTEDTSTDTAYMELSSLRSEDTAVYYCVTKGLAWLPYYSWGQGTLVTVSS
VL: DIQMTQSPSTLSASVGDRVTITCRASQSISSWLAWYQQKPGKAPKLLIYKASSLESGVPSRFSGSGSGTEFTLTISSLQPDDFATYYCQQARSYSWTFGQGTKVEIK
notes: IgG

Biological target: T1, active human C1s purified from human serum (CompTech, Tyler, TX, catalog number A104) (human, UniProt P09871 16-437; P09871 438-688)
T1 sequence 1: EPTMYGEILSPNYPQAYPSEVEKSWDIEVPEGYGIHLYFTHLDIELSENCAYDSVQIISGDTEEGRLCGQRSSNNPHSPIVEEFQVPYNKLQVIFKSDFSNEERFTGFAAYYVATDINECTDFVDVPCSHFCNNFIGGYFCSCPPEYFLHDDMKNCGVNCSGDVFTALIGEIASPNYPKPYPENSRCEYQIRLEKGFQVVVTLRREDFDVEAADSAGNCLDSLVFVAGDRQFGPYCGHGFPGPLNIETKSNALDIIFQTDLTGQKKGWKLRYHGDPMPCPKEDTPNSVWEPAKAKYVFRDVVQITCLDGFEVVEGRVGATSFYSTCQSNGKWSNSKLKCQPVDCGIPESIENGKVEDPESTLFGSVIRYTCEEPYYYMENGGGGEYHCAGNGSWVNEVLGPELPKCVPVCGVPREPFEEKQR
T1 sequence 2: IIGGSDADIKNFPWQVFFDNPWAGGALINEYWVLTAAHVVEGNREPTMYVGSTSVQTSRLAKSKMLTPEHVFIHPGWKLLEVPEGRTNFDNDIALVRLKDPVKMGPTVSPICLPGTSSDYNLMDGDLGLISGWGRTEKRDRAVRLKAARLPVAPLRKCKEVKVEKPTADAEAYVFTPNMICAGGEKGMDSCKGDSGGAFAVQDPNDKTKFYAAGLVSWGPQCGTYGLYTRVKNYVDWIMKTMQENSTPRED
Test: cell-based or functional assay

For B1, the “IC50, inhibition of sensitized hRBC lysis in 25% human serum” value was 17.5 nM.

Biological target: T1, active human C1s purified from human …
Test: cell-based or functional assay
Remark: another data set of the same source

In the case of B1, the “IC50, inhibition of Wieslab complement classical pathway (C5b-9 ELISA), 1% human serum” value is reported as 2.6 nM.

Biological target: T1, active human C1s purified from human …
Test: cell-based or functional assay
Remark: another data set of the same source

In the case of B1, the “IC50, inhibition of C3b deposition on sensitized hRBCs in 7.5% human serum (flow cytometry), Donor A” value is reported as 69.2 nM.

B1 was tested, and the “IC50, inhibition of C3b deposition on sensitized hRBCs in 7.5% human serum (flow cytometry), Donor B (1)” value was 193 nM.

With B1 the “IC50, inhibition of C3b deposition on sensitized hRBCs in 7.5% human serum (flow cytometry), Donor B (2)” value was 262 nM.

Biological target: T1, active human C1s purified from human …
Test: cell-based or functional assay
Remark: another data set of the same source

For B2, the “IC50 in the RBC lysis assay (FIG. 4C)” value was 61.2 nM.

Biological target: T1, active human C1s purified from human …
Test: cell-based or functional assay
Remark: another data set of the same source

With B1 the “IC50, inhibition of sensitized hRBC lysis in 25% human serum, Donor 1” value was 14.9 nM.

With B1 the “IC50, inhibition of sensitized hRBC lysis in 25% human serum, Donor 2” value was 17.1 nM.

For B1, the “IC50, inhibition of sensitized hRBC lysis in 25% human serum, Donor 3” value was 6.6 nM.

Biological target: T1, active human C1s purified from human …
Test: SPR (Biacore 4000), 37 C pH 7.4, antibody captured via goat anti-human antibody, C1s in solution, n=4
Experimental: Binding of MAB39 and MAB9 to Human Active C1s at 37° C./pH 7.4 Measured by Surface Plasmon Resonance. Human active C1s purified from serum was procured from Complement Technologies, Tyler, TX (catalog number A104). Studies to evaluate MAB39 and MAB9 binding to human active C1s at 37° C. were performed on a Biacore 4000 and Biacore T100 (Cytiva, Marlborough, MA), respectively. Goat anti-human antibody (ThermoFisher, Waltham, MA, USA, catalog number H10500) was amine-coupled to a C1 sensor chip (Cytiva, Marlborough, MA, USA, catalog number BR100535). MAB39 was diluted to 6.67 nM and MAB9 was diluted to 10 nM in 50 mM HEPES pH 7.4, 150 mM NaCl, 1.3 mM Ca, 0.02% Tween-20, 1 mg/mL BSA (HBS). MAB39 was captured for 60 seconds to produce surface densities of 200 RU and MAB9 was captured for 30 seconds to produce surface densities of 10 to 20 RU. Human active C1s was tested for binding using a 3-fold titration series in HBS with a maximum concentration of 12.3 nM for MAB39 and 16 nM for MAB9. Data were processed by subtracting responses from a reference surface as well as a buffer injection. The processed data were fitted with a 1:1 interaction model including baseline offset and bulk refractive index shifts in the association phase. Surfaces were regenerated with a 12 second injection of 1/100 dilution of H3PO4 for MAB39 and 12 second injection of 1/50 dilution of H3PO4 for MAB9. Replicate experiments were performed (n=2 for MAB9 and n=4 for MAB39).
Comparison of Binding Affinities of MAB39 and MAB9 to Human Active C1s by Surface Plasmon Resonance. The human active C1s association constant (ka), disassociation constant (kd) and affinity (KD) for MAB39 and MAB9 were determined in separate experiments (Table 17). […] Statistical analysis was performed using paired t-test, with p value of 0.6168.

B3 showed a Kd of 0.0105 nM.

B3 gave a koff of 0.000125 s⁻¹.

In the case of B3, the kon is reported as 1.19e+07 M⁻¹ s⁻¹.

Biological target: T1, active human C1s purified from human …
Test: SPR, antibody captured via anti-human Fc, C1s in solution

B4 and B5 are within 1.5-fold of each other in Kd: 4.17 nM for the first, 3.49 nM for the second.

B6 and B7 are within 1.5-fold of each other in Kd: 5.57 nM for the first, 6.52 nM for the second.

First: B8
Second: B9
The Kd of the first is 2.1-fold lower: 2.89 nM for the first, 6.01 nM for the second.

First: B10
Second: B11
The Kd of the first is 3-fold lower: 0.306 nM for the first, 0.932 nM for the second. The first binds more tightly here.

First: B12
Second: B13
The Kd of the first is 1.9-fold lower: 0.95 nM for the first, 1.83 nM for the second. The first binds more tightly here.

B14 and B15 are the same in Kd: 1.22 nM for the first, 1.22 nM for the second.

Work on B16 yielded a Kd of 6.39 nM.

B4 and B5 are within 1.5-fold of each other in koff: 0.000335 s⁻¹ for the first, 0.000328 s⁻¹ for the second.

B6 and B7 are within 1.5-fold of each other in koff: 0.000621 s⁻¹ for the first, 0.00055 s⁻¹ for the second.

Going from B8 to B9, the koff rises from 0.000409 s⁻¹ to 0.000688 s⁻¹ (1.7-fold).

Compared with B10, B11 is 1.6-fold higher in koff: 0.000127 s⁻¹ for the first, 0.000209 s⁻¹ for the second.

B12 and B13 are within 1.5-fold of each other in koff: 0.000255 s⁻¹ for the first, 0.000215 s⁻¹ for the second.

B14 and B15 are within 1.5-fold of each other in koff: 0.000232 s⁻¹ for the first, 0.000223 s⁻¹ for the second.

B16 was tested, and the koff was 0.000737 s⁻¹.

B4 and B5 are within 1.5-fold of each other in kon: 80400 M⁻¹ s⁻¹ for the first, 93900 M⁻¹ s⁻¹ for the second.

B6 and B7 are within 1.5-fold of each other in kon: 111000 M⁻¹ s⁻¹ for the first, 84500 M⁻¹ s⁻¹ for the second.

B8 and B9 are within 1.5-fold of each other in kon: 141000 M⁻¹ s⁻¹ for the first, 115000 M⁻¹ s⁻¹ for the second.

Compared with B10, B11 is 1.8-fold lower in kon: 414000 M⁻¹ s⁻¹ for the first, 224000 M⁻¹ s⁻¹ for the second.

Going from B12 to B13, the kon falls from 268000 M⁻¹ s⁻¹ to 118000 M⁻¹ s⁻¹ (2.3-fold).

B14 and B15 are within 1.5-fold of each other in kon: 190000 M⁻¹ s⁻¹ for the first, 184000 M⁻¹ s⁻¹ for the second.

B16 was tested, and the kon was 115000 M⁻¹ s⁻¹.
